# Columns and labels:
# [1] = target: human TPO receptor (MPL) expressed on Ba/F3 cells (human) (UniProt P40238); assay: cell-based or functional assay
# [2] = target: T1, human TPO receptor (MPL) expressed on Ba/F3 cells (human, UniProt P40238 26-635); assay: cell-based or functional assay
# T1 sequence (looked up): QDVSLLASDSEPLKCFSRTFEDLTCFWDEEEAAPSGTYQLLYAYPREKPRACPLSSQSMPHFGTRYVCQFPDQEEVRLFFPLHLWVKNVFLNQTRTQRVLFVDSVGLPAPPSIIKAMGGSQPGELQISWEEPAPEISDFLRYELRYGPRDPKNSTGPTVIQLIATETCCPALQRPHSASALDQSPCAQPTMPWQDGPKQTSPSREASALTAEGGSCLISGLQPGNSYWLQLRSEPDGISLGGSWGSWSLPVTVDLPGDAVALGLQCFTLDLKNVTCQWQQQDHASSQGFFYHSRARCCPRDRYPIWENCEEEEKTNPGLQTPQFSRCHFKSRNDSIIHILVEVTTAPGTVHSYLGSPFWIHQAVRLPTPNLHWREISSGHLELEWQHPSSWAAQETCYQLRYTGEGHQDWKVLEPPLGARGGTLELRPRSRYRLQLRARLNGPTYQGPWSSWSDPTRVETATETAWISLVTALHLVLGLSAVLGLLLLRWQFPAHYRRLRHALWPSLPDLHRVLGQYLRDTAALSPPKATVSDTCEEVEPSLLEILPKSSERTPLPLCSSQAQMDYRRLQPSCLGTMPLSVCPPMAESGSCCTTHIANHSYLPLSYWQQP
Molecule,"ED50, agonist activity, proliferation of BaF/mpl cells (WST-8) [1]","ED50, TPO-like agonist activity, proliferation of BaF/mpl cells (WST-8) [2]","agonist activity, fold against monovalent sc12B5 [2]"
human TPO (R&D Systems) (from UniProt P40225 22-353) (ligand),0.027 nM,–,–
"reconstructed 12B5 single chain Fv (sc12B5), culture supernatant of COS-7 cells (scFv) scFv: QVQLVQSGGGLVRPGGSLSLSCAVSGITLRTYGMHWVRQAPGKGLEWVAGISFDGRSEYYADSVQGRFTISRDSSKNTLYLQMNSLRAEDTAVYYCARGAHYGFDIWGQGTMVTVSSGGGGSGGGGSGGGGSDIQMTQSPSTLSASIGDRVTITCRASEGIYHWLAWYQQKPGKAPKLLIYKASSLASGAPSRFSGSGSGTDFTLTISSLQPDDFATYYCQQYSNYPLTFGGGTKLEIKDYKDDDDK",–,75 nM,–
sc12B5 monomer (scFv) scFv: QVQLVQSGGGLVRPGGSLSLSCAVSGITLRTYGMHWVRQAPGKGLEWVAGISFDGRSEYYADSVQGRFTISRDSSKNTLYLQMNSLRAEDTAVYYCARGAHYGFDIWGQGTMVTVSSGGGGSGGGGSGGGGSDIQMTQSPSTLSASIGDRVTITCRASEGIYHWLAWYQQKPGKAPKLLIYKASSLASGAPSRFSGSGSGTDFTLTISSLQPDDFATYYCQQYSNYPLTFGGGTKLEIKDYKDDDDK,–,4440 nM,–
sc12B5 dimer (scFv) scFv: QVQLVQSGGGLVRPGGSLSLSCAVSGITLRTYGMHWVRQAPGKGLEWVAGISFDGRSEYYADSVQGRFTISRDSSKNTLYLQMNSLRAEDTAVYYCARGAHYGFDIWGQGTMVTVSSGGGGSGGGGSGGGGSDIQMTQSPSTLSASIGDRVTITCRASEGIYHWLAWYQQKPGKAPKLLIYKASSLASGAPSRFSGSGSGTDFTLTISSLQPDDFATYYCQQYSNYPLTFGGGTKLEIKDYKDDDDK,–,10.1 nM,~400 fold
"antibody 12B5 (IgG) (antibody, V domains shown) VH: QVQLVQSGGGLVRPGGSLSLSCAVSGITLRTYGMHWVRQAPGKGLEWVAGISFDGRSEYYADSVQGRFTISRDSSKNTLYLQMNSLRAEDTAVYYCARGAHYGFDIWGQGTMVTVSS VL: DIQMTQSPSTLSASIGDRVTITCRASEGIYHWLAWYQQKPGKAPKLLIYKASSLASGAPSRFSGSGSGTDFTLTISSLQPDDFATYYCQQYSNYPLTFGGGTKLEIK",–,29 nM,–
"12B5Fab fragment (Fab, V domains shown) VH: QVQLVQSGGGLVRPGGSLSLSCAVSGITLRTYGMHWVRQAPGKGLEWVAGISFDGRSEYYADSVQGRFTISRDSSKNTLYLQMNSLRAEDTAVYYCARGAHYGFDIWGQGTMVTVSS VL: DIQMTQSPSTLSASIGDRVTITCRASEGIYHWLAWYQQKPGKAPKLLIYKASSLASGAPSRFSGSGSGTDFTLTISSLQPDDFATYYCQQYSNYPLTFGGGTKLEIK",–,34700 nM,–

# Reference: patent EP1327680B1 (CHUGAI SEIYAKU KABUSHIKI KAISHA, dated 2008)
